In publication PMC3795685:

Molecular target: TAP-tagged wild-type Infected Cell Polypeptide 4 (ICP4) of HSV-1 strain KOS (herpes simplex virus type 1 (HSV-1), strain KOS) (UniProt P08392)
Test: pull-down; streptavidin affinity purification of TAP-tagged ICP4 from nuclear extracts of infected Vero cells (3 or 6 hpi), independent samples; biotin eluates analysed by Western blot, in part quantified with a LI-COR Odyssey imager and normalised to ICP4; untagged virus as control

Chain of UniProt P08392 (P08392 whole entry): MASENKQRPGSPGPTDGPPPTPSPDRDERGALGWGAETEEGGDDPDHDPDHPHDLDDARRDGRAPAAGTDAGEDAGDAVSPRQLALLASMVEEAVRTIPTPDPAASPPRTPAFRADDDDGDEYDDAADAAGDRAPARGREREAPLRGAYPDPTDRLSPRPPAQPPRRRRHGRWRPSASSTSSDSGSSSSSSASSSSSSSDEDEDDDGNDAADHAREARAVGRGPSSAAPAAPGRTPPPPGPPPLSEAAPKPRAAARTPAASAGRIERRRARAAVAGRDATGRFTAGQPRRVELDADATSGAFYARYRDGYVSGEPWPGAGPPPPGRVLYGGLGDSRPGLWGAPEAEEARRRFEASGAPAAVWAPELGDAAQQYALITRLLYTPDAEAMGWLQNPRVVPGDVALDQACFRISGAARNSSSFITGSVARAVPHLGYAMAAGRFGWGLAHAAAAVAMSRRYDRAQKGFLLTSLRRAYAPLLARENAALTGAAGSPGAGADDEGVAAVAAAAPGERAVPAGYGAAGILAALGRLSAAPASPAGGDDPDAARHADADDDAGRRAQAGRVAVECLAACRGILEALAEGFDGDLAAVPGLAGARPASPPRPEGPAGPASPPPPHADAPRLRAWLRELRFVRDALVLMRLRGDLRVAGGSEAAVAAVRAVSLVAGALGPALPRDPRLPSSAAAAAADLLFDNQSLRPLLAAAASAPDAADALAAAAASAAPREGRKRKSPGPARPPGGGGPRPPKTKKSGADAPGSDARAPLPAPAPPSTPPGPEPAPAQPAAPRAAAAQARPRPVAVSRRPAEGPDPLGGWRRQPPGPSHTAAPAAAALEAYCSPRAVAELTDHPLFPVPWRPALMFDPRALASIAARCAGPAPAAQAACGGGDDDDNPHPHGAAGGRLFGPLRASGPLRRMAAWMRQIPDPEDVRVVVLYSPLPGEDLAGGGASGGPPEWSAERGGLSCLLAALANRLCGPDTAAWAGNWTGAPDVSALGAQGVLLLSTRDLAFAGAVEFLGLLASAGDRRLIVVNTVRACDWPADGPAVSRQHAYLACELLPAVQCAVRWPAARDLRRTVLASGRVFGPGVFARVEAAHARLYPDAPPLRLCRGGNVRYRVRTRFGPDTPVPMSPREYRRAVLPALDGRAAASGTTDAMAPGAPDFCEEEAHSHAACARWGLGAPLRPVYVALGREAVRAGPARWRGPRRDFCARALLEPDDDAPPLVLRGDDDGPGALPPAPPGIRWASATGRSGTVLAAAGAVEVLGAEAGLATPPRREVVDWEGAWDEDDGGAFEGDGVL

## MED1 (natural protein)
  fold increase of the amount co-purified at 6 hpi against 3 hpi (normalised to ICP4): 3 fold
